From article PMC3037662 (The Journal of Biological Chemistry, 2010)

Key:
[1] = target: MtrE, His-tagged (wild type) (N. gonorrhoeae FA19) (UniProt Q51006); assay: native MS
[2] = target: MtrE, His-tagged (wild type) (N. gonorrhoeae FA19) (UniProt Q51006); assay: ITC
[3] = target: T1, MtrD, His-tagged (N. gonorrhoeae FA19, UniProt Q51073 1-1067); assay: ITC
T1 sequence (looked up): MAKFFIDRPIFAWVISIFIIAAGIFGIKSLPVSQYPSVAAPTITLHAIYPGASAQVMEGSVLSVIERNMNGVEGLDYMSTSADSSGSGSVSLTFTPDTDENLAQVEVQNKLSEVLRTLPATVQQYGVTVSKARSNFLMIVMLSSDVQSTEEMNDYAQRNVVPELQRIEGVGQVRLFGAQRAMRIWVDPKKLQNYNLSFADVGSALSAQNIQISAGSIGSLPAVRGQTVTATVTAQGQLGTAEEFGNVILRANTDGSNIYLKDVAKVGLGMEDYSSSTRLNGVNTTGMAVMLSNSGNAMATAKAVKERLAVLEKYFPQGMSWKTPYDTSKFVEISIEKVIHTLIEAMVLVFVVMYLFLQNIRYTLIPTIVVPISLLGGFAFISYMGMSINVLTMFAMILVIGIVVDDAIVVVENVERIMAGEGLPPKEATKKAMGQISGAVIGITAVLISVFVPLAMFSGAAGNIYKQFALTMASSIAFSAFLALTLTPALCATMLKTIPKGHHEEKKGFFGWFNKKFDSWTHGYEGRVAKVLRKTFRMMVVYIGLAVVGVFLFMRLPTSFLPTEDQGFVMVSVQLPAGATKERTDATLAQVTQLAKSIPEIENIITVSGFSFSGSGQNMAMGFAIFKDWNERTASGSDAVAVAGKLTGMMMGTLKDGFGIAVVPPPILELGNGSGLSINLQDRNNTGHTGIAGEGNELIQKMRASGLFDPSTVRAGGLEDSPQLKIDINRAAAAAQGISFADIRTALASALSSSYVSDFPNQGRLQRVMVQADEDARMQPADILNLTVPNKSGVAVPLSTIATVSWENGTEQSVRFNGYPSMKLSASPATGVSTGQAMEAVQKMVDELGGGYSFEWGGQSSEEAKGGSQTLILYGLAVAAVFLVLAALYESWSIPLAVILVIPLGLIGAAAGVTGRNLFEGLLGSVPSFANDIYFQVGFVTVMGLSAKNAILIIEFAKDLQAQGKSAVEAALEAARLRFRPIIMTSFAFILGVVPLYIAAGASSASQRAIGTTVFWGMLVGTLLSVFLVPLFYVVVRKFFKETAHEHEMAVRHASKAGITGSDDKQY

[4] = target: MtrE E434K, His-tagged (N. gonorrhoeae FA19) (UniProt Q51006); assay: ITC

Molecule “MtrE, His-tagged (wild type) (from UniProt Q51006 1-467) (natural protein)” has a stoichiometry N [1] of 3.

B1: NT-MtrC, N-terminal-truncated (Δ1–34) MtrC, His-tagged (domain or fragment, N. gonorrhoeae FA19, UniProt P43505 35-412, looked up)
chain: GQPAGREAPAPVVGVVTVHPQTVALTVELPGRLESLRTADVRAQVGGIIQKRLFQEGSYVRAGQPLYQIDSSTYEAGLESARAQLATAQATLAKADADLARYKPLVSADAISKQEYDAAVTAKRSAEASVKAAQAAIKSAGINLNRSRITAPISGFIGQSKVSEGTLLNAGDTTVLATIRQTNPMYVNVTQSASEVMKLRRQIAEGKLLAADGAIAVGIKFDDGTVYPEKGRLLFADPTVDESTGQITLRAAVSNDQNILMPGLYVRVLMDQVAADNAFIVPQQAVTRGAKDTVMIVNAQGGMEPREVTVAQQQGTNWIVTSGLKDGDKVVVEGISIAGMTGAKKVTPKEWAPSENQAAAPQAGVQTASEAKPASEAK
With B1 the Kd [2] was 9800 nM, the dH [2] was -6.84 kcal/mol and the Ka [3] was 1.2e+06 M⁻¹. For the same molecule, the Kd [3] was 800 ± 700 nM and the dH [3] was 1.41 ± 0.318 kcal/mol.

B2: MtrC α-helical coiled-coil hairpin domain (residues 103–183), His-tagged (domain or fragment)
chain: IDSSTYEAGLESARAQLATAQATLAKADADLARYKPLVSADAISKQEYDAAVTAKRSAEASVKAAQAAIKSAGINLNRSRI
B2 showed a Ka1 (site 1 of a two-site fit) [2] of 460000 M⁻¹, a Ka2 (site 2 of a two-site fit) [2] of 3200 M⁻¹ and a Kd of the first (high-affinity) site of a two-site fit [2] of 2200 nM. For the same molecule, the dH1 (site 1 of a two-site fit) [2] was -12 kcal/mol, the dH2 (site 2 of a two-site fit) [2] was -62 kcal/mol and the dH of the first site of a two-site fit [2] was -11 kcal/mol. The Ka [4] was 8.2e+06 M⁻¹, the Kd [4] was 130 nM and the dH [4] was -4.12 kcal/mol.
